This passage reports copies of cargo in a T=3 shell and copies of cargo in a T=4 shell results from publication doi:10.1101/2024.05.02.592161.

The assay addresses Mx_pmut, pore-engineered Myxococcus xanthus encapsulin shell protein (Myxococcus xanthus) (UniProt Q1D6H4). As to the kind of experiment: cryo-EM structure; purified Mx_pmut co-expressed with SNAP-tag-TP cargo (T=3/T=4 sample), 4.1 mg/mL, 150 mM NaCl, 25 mM Tris pH 8.0; icosahedral symmetry imposed.

“SNAP-tag carrying an Mx-targeting peptide (TP) at its C-terminus” came in with a copies of cargo in a T=3 shell of 180 copies and a copies of cargo in a T=4 shell of 240 copies.
